# Assay results: US20050220762A1
# Key:
# [1] = target: T1, full length rat GHR (L43R) on BAF3 cells (rat) (UniProt P16310); test: cell-based or functional assay
# T1 sequence (looked up): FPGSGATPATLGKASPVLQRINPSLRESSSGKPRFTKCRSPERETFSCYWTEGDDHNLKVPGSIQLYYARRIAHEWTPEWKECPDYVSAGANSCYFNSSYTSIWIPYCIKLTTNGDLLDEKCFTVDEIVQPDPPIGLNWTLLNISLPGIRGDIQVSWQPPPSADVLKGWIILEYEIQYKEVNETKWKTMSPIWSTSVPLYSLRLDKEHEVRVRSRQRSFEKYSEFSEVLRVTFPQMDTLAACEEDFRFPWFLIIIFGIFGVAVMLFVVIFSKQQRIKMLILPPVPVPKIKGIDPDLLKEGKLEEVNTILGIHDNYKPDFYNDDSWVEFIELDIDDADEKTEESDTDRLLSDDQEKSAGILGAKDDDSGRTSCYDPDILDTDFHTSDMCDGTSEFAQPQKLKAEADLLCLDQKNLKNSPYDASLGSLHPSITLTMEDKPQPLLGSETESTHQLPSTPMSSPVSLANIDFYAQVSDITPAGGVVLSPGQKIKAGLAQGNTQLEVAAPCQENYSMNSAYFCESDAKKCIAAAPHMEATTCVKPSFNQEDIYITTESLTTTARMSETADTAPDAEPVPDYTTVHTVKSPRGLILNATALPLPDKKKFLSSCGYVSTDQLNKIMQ
# [2] = target: human growth hormone receptor on IM-9 cells (human) (UniProt P10912); test: cell-based or functional assay
# Sequence of UniProt P10912 (P10912 19-638): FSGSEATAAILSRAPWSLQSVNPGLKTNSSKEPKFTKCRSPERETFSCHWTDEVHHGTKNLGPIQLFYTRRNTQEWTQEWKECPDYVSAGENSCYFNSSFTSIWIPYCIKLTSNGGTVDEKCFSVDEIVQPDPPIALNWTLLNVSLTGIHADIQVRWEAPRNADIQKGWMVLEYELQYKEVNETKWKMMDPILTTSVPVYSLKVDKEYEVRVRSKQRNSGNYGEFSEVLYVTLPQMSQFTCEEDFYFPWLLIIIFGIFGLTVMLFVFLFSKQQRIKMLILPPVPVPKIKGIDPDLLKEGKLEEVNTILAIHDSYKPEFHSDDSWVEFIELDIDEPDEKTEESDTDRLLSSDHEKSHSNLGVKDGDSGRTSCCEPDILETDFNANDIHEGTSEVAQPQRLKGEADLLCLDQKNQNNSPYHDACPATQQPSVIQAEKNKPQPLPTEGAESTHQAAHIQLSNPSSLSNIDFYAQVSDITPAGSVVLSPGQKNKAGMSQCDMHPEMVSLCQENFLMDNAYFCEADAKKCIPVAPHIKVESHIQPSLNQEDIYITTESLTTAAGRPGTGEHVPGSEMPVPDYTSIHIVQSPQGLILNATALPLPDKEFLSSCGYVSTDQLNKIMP
"Proliferation EC50 (nM), BrdU, rat GHR (L43R) BAF3 cells; WHO hGH expressed as unity [1] [nM]","pSTAT5 EC50 (nM), IM-9; WHO hGH expressed as unity [2] [nM]",Substance
4.6,23.8,hGH G131pAF linked to 30 kDa PEG (from UniProt P01241 27-217) (ligand)
5.3,20.6,hGH K145pAF linked to 30 kDa PEG (from UniProt P01241 27-217) (ligand)
–,5.3,hGH R134pAF linked to 20 kDa PEG (from UniProt P01241 27-217) (ligand)
24,53.3,hGH Y35pAF linked to 40 kDa PEG (from UniProt P01241 27-217) (ligand)
6.6,12.3,hGH Y143pAF linked to 30 kDa PEG (from UniProt P01241 27-217) (ligand)
